This is an account of results in patent US20260201030A1 (EVOPOINT BIOSCIENCES, published 2026).

What is called EC50 is the concentration needed to bring the measured effect to its halfway point. A low value points to a more potent agent.

Where two headings read alike, the source gives them in different places.

Experiment [1] deals with T1, human Claudin18.1 (human, UniProt P56856 1-261).
T1 construct: whole, on cells; also called CLDN18.1; HEK293T-Claudin18.1 (human)
Briefly: FACS on HEK293T-Claudin18.1 (human) cells.

The target of experiment [2] is T1, human Claudin18.1. Nature of the experiment: FACS on HEK293T-Claudin18.1 (human) cells, antibody 50 µg/mL. As to the method:
The specificity of the anti-human Claudin18.2 murine monoclonal antibodies was evaluated by flow cytometry (FACS). The experimental procedures were as follows: The adherent cultured HEK293T-Claudin18.1 (human) cells were digested, collected by centrifugation, and washed three times with pre-cooled PBS. The cells were resuspended in 1% BSA (in PBS) and added to a 96-well pointed bottom plate at 3×10⁵ cells/well, with a volume of 50 μL per well. Each test antibody was diluted to 100 μg/mL with […] (in PBS) and added to the cells at 50 μL/well to achieve a final antibody concentration of 50 μg/mL. The mixture was well mixed and incubated at 4° C. for 1 h. The cells were collected by centrifugation, washed three times with pre-cooled PBS, and resuspended in 50 μL of 1% BSA (in PBS). 1 μL of a fluorescent secondary antibody (Biolegend, cat #405308) was added to each well, and the mixture was well mixed and incubated at 4° C. for 0.5 h. The cells were collected by centrifugation, washed three times with pre-cooled PBS, resuspended in 200 μL of PBS, and assayed on a machine (flow cytometer model: Sony-LE-SA3800GA). The APC fluorescence signal value was obtained, and the gate was set using an isotype control antibody as a negative control to obtain the percentage of positively stained cells (positive rate (0%)).

Experiment [3] addresses T2, human Claudin18.2 (human, UniProt P56856-2 1-261).
T2 construct: whole, on cells; also called CLDN18.2; HEK293T-Claudin18.2 (human)
Briefly: cell-based ELISA on fixed HEK293T-Claudin18.2 (human) cells. As to the method:
(§1) The affinity of the anti-human Claudin18.2 murine monoclonal antibodies was evaluated by cell-based ELISA. The experimental procedures were as follows: The day before the experiment, HEK293T-Claudin18.2 (human) cells were plated in a 96-well plate at 5×10⁴ cells/well. On the day of the experiment, the supernatant was removed, the cells in each well were washed once with 300 μL of PBS, and 100 μL of 4% paraformaldehyde was added to each well for fixation at room temperature for 20 min. Paraformaldehyde was then removed, and the cells in each well were washed twice with 300 μL of PBS. 100 μL of 2% BSA (in PBS) was added to each well, and the mixture was blocked at 37° C. for 2 h. After removing the blocking solution, each antibody subjected to gradient dilution (diluted with 2% BSA (in PBS), starting at […], in a 3-fold gradient, for a total of 11 concentration points) was added to the plate at 100 μL/well, and the mixture was incubated at 37° C. for 2 h. The supernatant was removed, and the cells in each well were washed three times with 300 μL of PBST. 100 μL of an anti-mouse IgG HRP secondary antibody (Jackson, cat #115-035-003) in 2% BSA was added to each well, and the mixture was incubated at 37° C. for 1 h. The secondary antibody was then removed, and the cells in each well were washed five times with 300 μL of PBST, followed by the addition of 100 μL of a TMB substrate (Huzhou InnoReagents Co., Ltd.) per well for color development for 5-20 min. The reaction was stopped by adding 50 μL of 2 N HCl to each well, and OD_{450 nm} values were read on a microplate reader (manufacturer: MD, model: SpectraMax). The values obtained were plotted by GraphPad Prism to calculate the EC₅₀ value.

Experiment [4] deals with T2, human Claudin18.2. Nature of the experiment: cell-based ELISA on NUGC4 cells (endogenous human Claudin18.2). A general note: In an ELISA, binding on a coated surface is turned into a signal by an enzyme label.
Experiment [5] addresses T2, human Claudin18.2. Nature of the experiment: FACS on HEK293T-Claudin18.2 (human) cells. As to the method:
(§2) The affinity of the anti-human Claudin18.2 humanized antibodies was detected by flow cytometry. The experimental procedures were as follows: The adherent cultured HEK293T-Claudin18.2 (human), NUGC4-Claudin18.2 (human) and NUGC4 cells were digested, collected by centrifugation, and washed three times with pre-cooled PBS. The cells were resuspended in 1% BSA (in PBS) and added to a 96-well pointed bottom plate at 3×10⁵ cells/well, with a volume of 50 μL per well. Each test antibody was diluted with 1% BSA (in PBS) (starting at 100 μg/mL, diluted in a 3-fold gradient, for 10 concentration points). The test antibody subjected to gradient dilution was added to the cells at 50 μL/well, and the mixture was well mixed and incubated at 4° C. for 1 h. The cells were collected by centrifugation, washed three times with pre-cooled PBS, and resuspended in 50 μL of 1% BSA (in PBS). 1 μL of a fluorescent secondary antibody (Biolegend-410712) was added to each well, and the mixture was well mixed and incubated at 4° C. for 0.5 h. The cells were collected by centrifugation, washed three times with pre-cooled PBS, resuspended in 200 μL of PBS, and assayed on a machine.

For experiment [6], the target named is T2, human Claudin18.2. Nature of the experiment: cell-based ELISA on NUGC4-Claudin18.2 (human) cells.
The target in experiment [7] is T2, human Claudin18.2. Briefly: cell-based ELISA (OD450) on NUGC4 cells (endogenous human Claudin18.2).
The target of experiment [8] is T1, human Claudin18.1. Nature of the experiment: FACS on HEK293T-Claudin18.1 (human) cells, antibody 50 µg/mL. As to the method:
The specificity of the anti-human Claudin18.2 humanized monoclonal antibodies was determined by flow cytometry (FACS). The experimental procedures were as follows: HEK293T-Claudin18.1 (human) cells were digested, collected by centrifugation, washed three times with pre-cooled PBS, resuspended in 1% BSA (in PBS), and added to a 96-well pointed bottom plate at 3×10⁵ cells/well. Each test antibody with a final concentration of 50 μg/mL was added, and the mixture was incubated at 4° C. for 1 h. The cells were washed three times with pre-cooled PBS, and then 1 μL of a fluorescent secondary antibody (APC: Biolegend-410712 or PE: BioLegend-410708) was added to each well. The mixture was incubated at 4° C. for 0.5 h, and the cells were washed three times with pre-cooled PBS, then resuspended, and assayed on a flow cytometer. For reference, anti-human Claudin18.1 positive control antibodies (positive control antibody-1 and positive control antibody-2) were included in the experiment.
This is another data set of the same source.

Experiment [9] addresses T2, human Claudin18.2. Briefly: cell-based ELISA on HEK293T-Claudin18.2 (human) cells. As to the method: as §1, with “100 μL of an anti-mouse IgG HRP secondary antibody (Jackson, cat #115-035-003) in 2% BSA was added to each well, and the mixture was incubated at 37° C. for 1 h. The secondary antibody was then removed, and the cells in each well were washed five times with 300 μL of PBST, followed by the addition of 100 μL of a TMB substrate (Huzhou InnoReagents Co., Ltd.) per well for color development for 5-20 min.” left out, “The values obtained were plotted by GraphPad Prism to calculate the EC₅₀ value.” left out
The affinity of the anti-human Claudin18.2 humanized monoclonal antibodies was determined by cell-based ELISA. […]

The target of experiment [10] is T2, human Claudin18.2. Nature of the experiment: cell-based ELISA on L929-Claudin18.2 (human) cells.
In experiment [11] the target is T2, human Claudin18.2. Briefly: FACS on NUGC4-Claudin18.2 (human) cells. As to the method: as §2
The target in a further experiment is T3, mouse Claudin18.2 (mouse, UniProt P56857-3 1-264, limits assumed).
T3 construct: whole, on cells; also called HEK293T-Claudin18.2 (mouse)
T3 sequence (P56857 other isoform, or with tags, fused parts or gaps limits assumed): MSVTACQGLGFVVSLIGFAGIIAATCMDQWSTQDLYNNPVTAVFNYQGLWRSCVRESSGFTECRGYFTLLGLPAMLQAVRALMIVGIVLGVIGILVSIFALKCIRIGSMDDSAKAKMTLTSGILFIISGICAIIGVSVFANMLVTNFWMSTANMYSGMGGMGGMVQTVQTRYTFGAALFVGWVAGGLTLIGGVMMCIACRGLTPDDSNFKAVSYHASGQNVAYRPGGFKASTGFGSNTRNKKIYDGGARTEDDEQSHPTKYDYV
Briefly: FACS on HEK293T-Claudin18.2 (mouse) cells. As to the method:
The mixture was incubated at 4° C. for 0.5 h, and the cells were washed three times with pre-cooled PBS, then resuspended, and assayed on a flow cytometer.

In experiment [12] the target is T2, human Claudin18.2. Briefly: cell-based or functional assay.
In experiment [13] the target is T2, human Claudin18.2. Briefly: cell-based ELISA on L929-claudin 18.2 (human) and NUGC4 cells, ADC.

B1: 1A6G10 (antibody, V domains shown)
VH: QVQLKESGGGLVKPGGSLKLSCAASGFTFSSYAMSWVRQTPEKRLEWVAAIHSNGGSTYNSDTMRDRFTISRDHAKNTLYLQMSSLRSEDTALYYCGRQSFGNALDYWGQGTSVTVSS
VL: DIQMTQSPSSLTVTAGEKVTLTCKSSQSLLNSGNQKNYLTWYQQKPGQPPKLLIYWASTRESGVPDRFTGSGSGTFFTLTISSVQAEDLAVYFCQNDYVYPFTFGAGTQLELK
notes: Murine monoclonal antibody purified from hybridoma supernatant; also called 1A6G11
Regarding B1, the binding result with human Claudin18.1 [1] is recorded as “no binding (tested: 50 µg/mL)”. In the experiment with human Claudin18.1 [2], the “Mean APC fluorescence signal value” turned out to be 111 and the “Positive rate (%)” value is 0.16%. For the same molecule, the EC50 with human Claudin18.2 [3] is 0.00502 µg/mL.

B2: 25C7A5-HZ1 (antibody, human IgG1, kappa)
heavy: not shown
light: EIVLTQSPATLSLSPGERATLSCKASENVKTYVSWYQQKPGQSPRLLIYEASNRYTGVPARFSGSGSATDFTLTISSLEPEDFAVYFCGQTYSFPPTFGQGTKVEIKRTVAAPSVFIFPPSDEQLKSGTASVVCLLNNFYPREAKVQWKVDNALQSGNSQESVTEQDSKDSTYSLSSTLTLSKADYEKHKVYACEVTHQGLSSPVTKSFNRGEC
notes: Humanized IgG1/kappa
With B2, the EC50 with human Claudin18.2 [4] was found to be 0.101 µg/mL; with human Claudin18.2 [5] it was 0.292 µg/mL; with human Claudin18.2 [6], 0.108 µg/mL; with human Claudin18.2 [9], 0.0112 µg/mL; with human Claudin18.2 [10], 0.0134 µg/mL; in the experiment with human Claudin18.2 [11] it was 3.19 µg/mL. In addition, in the experiment with mouse Claudin18.2, the concentration for a half-maximal effect (EC50) came out at 0.941 µg/mL. Moreover, the Maximum signal value with human Claudin18.2 [5] stood at 114000; with human Claudin18.2 [7] it was 0.304. The “Positive rate (%)” value in the experiment with human Claudin18.1 [8] was 0.54%. In addition, the “ADCC activity EC50 (Jurkat-NFAT-CD16a luciferase reporter, HEK293T-Claudin18.2 (human) target cells)” value with human Claudin18.2 [12] was found to be 0.0465 µg/mL. Also, in the experiment with human Claudin18.2 [12], the “CDC activity EC50 (guinea pig serum killing, CCK8, HEK293T-Claudin18.2 (human) cells)” value was determined as 3.14 µg/mL.

B3: ADC formed by conjugation of 25C7A5-HZ1 (antibody, human IgG1, kappa)
heavy: not shown
light: B2 light
modifications: toxin linker conjugated to cysteine sulfhydryl groups after TCEP reduction (positions not given); toxin linker conjugated to cysteine sulfhydryl groups after TCEP reduction (positions not given); DAR 6.82 (B82 batch) or 7.97 (B81 batch)
notes: also called conjugated 25C7A5-HZ1; 25C7A5-HZ1-B82
Consider B3, for which, in the experiment with human Claudin18.2 [13], the binding result is “binds”.

B4: 25C7A5-HZ2 (antibody, human IgG1, kappa)
heavy: not shown
light: B2 light
notes: Humanized IgG1/kappa
As for B4, the EC50 with human Claudin18.2 [4] stood at 0.122 µg/mL; with human Claudin18.2 [5] it was 0.293 µg/mL; in the experiment with human Claudin18.2 [9], 0.0112 µg/mL; with human Claudin18.2 [10], 0.0148 µg/mL. The Maximum signal value with human Claudin18.2 [5] is 119000; with human Claudin18.2 [7], 0.313. Also, in the experiment with human Claudin18.1 [8], the “Positive rate (%)” value worked out at 0.55%. Also, the “ADCC activity EC50 (Jurkat-NFAT-CD16a luciferase reporter, HEK293T-Claudin18.2 (human) target cells)” value in the experiment with human Claudin18.2 [12] was 0.0488 µg/mL. Moreover, the “CDC activity EC50 (guinea pig serum killing, CCK8, HEK293T-Claudin18.2 (human) cells)” value with human Claudin18.2 [12] turned out to be 3.28 µg/mL.

B5: ADC formed by conjugation of 25C7A5-HZ2 (antibody, human IgG1, kappa)
heavy: not shown
light: B2 light
modifications: toxin linker conjugated to cysteine sulfhydryl groups after TCEP reduction (positions not given); toxin linker conjugated to cysteine sulfhydryl groups after TCEP reduction (positions not given); DAR 7.10
notes: The label B82 is not explained; also called conjugated 25C7A5-HZ2; 25C7A5-HZ2-B82
Take B5: the binding result with human Claudin18.2 [13] is recorded as “binds”.
